The test system of one data set is ATP production. The settings on record: 1 mM fuel; cascade with ADH, formDH and FDH; polyphosphate; 200 μL.
A further data set concerns the target T1, human NADK (Homo sapiens, UniProt O95544).
T1 sequence (O95544 1-446): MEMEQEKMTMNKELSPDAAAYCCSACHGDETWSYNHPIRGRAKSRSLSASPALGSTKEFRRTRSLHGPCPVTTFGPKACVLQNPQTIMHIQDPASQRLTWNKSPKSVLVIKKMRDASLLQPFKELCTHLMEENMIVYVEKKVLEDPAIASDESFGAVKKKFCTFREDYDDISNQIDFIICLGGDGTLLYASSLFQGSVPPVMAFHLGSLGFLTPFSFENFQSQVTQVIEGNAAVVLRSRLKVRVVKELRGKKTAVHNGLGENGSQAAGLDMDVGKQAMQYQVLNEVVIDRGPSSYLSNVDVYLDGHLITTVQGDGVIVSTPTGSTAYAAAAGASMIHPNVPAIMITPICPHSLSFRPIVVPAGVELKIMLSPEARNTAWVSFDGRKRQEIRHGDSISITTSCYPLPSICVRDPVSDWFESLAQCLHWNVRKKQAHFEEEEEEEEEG
Particulars: cited from earlier work.

Data set [1] deals with T2, B. subtilis polyphosphate NAD+ kinase (PPNK), recombinant, 6x-histidine tag (Bacillus subtilis, UniProt O31612).
T2 sequence (O31612 1-266): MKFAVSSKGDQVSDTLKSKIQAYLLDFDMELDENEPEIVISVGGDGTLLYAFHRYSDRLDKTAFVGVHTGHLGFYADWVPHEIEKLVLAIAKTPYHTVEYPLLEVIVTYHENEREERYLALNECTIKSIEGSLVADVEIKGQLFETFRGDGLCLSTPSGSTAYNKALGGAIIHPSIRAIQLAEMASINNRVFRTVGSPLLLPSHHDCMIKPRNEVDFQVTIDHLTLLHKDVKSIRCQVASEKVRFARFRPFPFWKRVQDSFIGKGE
Description: Kinetics of polyphosphate NAD+ kinase (PPNK), coupled to TPNOX, absorbance at 340 nm. The settings on record: 26° C., pH 7.8, 10 mM MgCl2, random bi-bi sequential.

Substrate in data set [2]: NC(=O)C1=CN([C@@H]2O[C@H](COP(=O)(O)OP(=O)(O)OC[C@H]3O[C@@H](n4cnc5c(N)ncnc54)[C@H](O)[C@@H]3O)[C@@H](O)[C@H]2O)C=CC1
The experiment in a line: purified protein, by the assay type. The settings on record: 26° C., pH 7.8, 10 mM MgCl2, random bi-bi sequential, pH 7.8, 26.0 °C.

Substrate in data set [3]: Nc1ncnc2c1ncn2[C@@H]1O[C@H](COP(=O)(O)OP(=O)(O)OP(=O)(O)O)[C@@H](O)[C@H]1O
Description: purified protein, by the assay type. The settings on record: other: cosubstrate NADH, 26° C., pH 7.8, 10 mM MgCl2, random bi-bi sequential.

Substrate in data set [4]: NC(=O)c1ccc[n+]([C@@H]2O[C@H](COP(=O)([O-])OP(=O)(O)OC[C@H]3O[C@@H](n4cnc5c(N)ncnc54)[C@H](O)[C@@H]3O)[C@@H](O)[C@H]2O)c1
Description: Kinetics of formate dehydrogenase (FDH). The class given is biochemical, C. boidinii. The settings on record: other: abbreviated sequential mechanism; pH 7.4; 37.0 °C. An excerpt: (§1) The enzymes involved in the cascade were characterized. Kinetic parameters for the NADH-dependent dehydrogenases, PPNKs, NADPH oxidases, and NADKs included in the exemplary embodiments of the present disclosure are shown in Table I below.
(§2) The FDH from C. boidinii was expressed recombinantly in a pEt28a plasmid and purified according to the materials and methods.
(§3) For overexpression, the enzymes were transformed into BL21(DE3) E. coli cells (New England Biolabs). Overnight cultures of BL21(DE3) E. coli cells harboring the DNA in pET20b plasmids and pET28a plasmid for FDH and sfGFP, respectively, were transferred into 50 mL of LB medium with 100 μg/mL ampicillin at 37° C. Overexpression of the enzymes was induced by adding isopropyl-β-thiogalactopyranoside (IPTG) to a final concentration of 1 mM at an optical density (OD) of 0.6 at 600 nm. After 3 h of induction, the cells were harvested and sonicated in wash buffer A for TPNOX (10 mM imidazole, 300 mM NaCl, and 20 mM Tris-HCl pH 7.4) and wash buffer B for all other enzymes (40 mM imidazole, 300 mM NaCl, and 20 mM Tris-HCl pH 7.4). The cells were centrifuged at 7000 rpm for 1 h and 4° C. The protein was purified using a nickel-nitrilotriacetic acid (Ni-NTA) column with continuous elution up to 500 mM imidazole.

Substrate in data set [5]: O=CO
The experiment in a line: Kinetics of formate dehydrogenase (FDH). The class given is biochemical, C. boidinii. The settings on record: other: abbreviated sequential mechanism; pH 7.4; 37.0 °C.
From the text: as §1, §2, §3

Another data set has as its system NADK. Description: Initial rate kinetic experiments with pigeon, duck, cat and human NADK enzymes, forward and reverse directions. Particulars: reverse direction (NADP^+ + ADP to NAD^+ + ATP); recombinant enzyme. Type of data set: biochemical. On the procedure:
Recombinantly-expressed NADKs were explored for their reversible activities. It was hypothesized that the reversibility of the pigeon enzyme would enable compensation for the high picolinic acid […] (PC) activity present in pigeon livers, which inhibits NAD^+ biosynthesis from dietary tryptophan. […] It was determined that human NADK has an affinity for NAD^+ that is about 600 times higher than the pigeon, duck and cat isoforms. Without wishing to be bound by theory, NAD^+ serves as a product inhibitor for the reverse human NADK activity, which accounts for the observed irreversible behavior. While each of the NADKs explored were “reversible,” the reverse activity of the human enzyme is impeded via product inhibition. […]
Referring now to FIGS. 3A-3B, initial rate kinetic experiments were performed with pigeon, duck, cat, and human NADK enzymes in both the forward and reverse directions. […] In FIG. 3B, the production of ATP was detected in a coupled reaction with firefly luciferase where ATP was converted to light, the relative luminescence (RLU) was monitored, and a standard curve was used to calculate the ATP concentration.

Substrate in data set [6]: NC(=O)c1ccc[n+]([C@@H]2O[C@H](COP(=O)([O-])OP(=O)(O)OC[C@H]3O[C@@H](n4cnc5c(N)ncnc54)[C@H](OP(=O)(O)O)[C@@H]3O)[C@@H](O)[C@H]2O)c1
Description: purified protein, by the assay type. Particulars: other: reverse direction; random bi-bi sequential mechanism.

Substrate in data set [7]: Nc1ncnc2c1ncn2[C@@H]1O[C@H](COP(=O)(O)OP(=O)(O)O)[C@@H](O)[C@H]1O
Description: purified protein, by the assay type. Type of data set: biochemical, pigeon. Particulars: other: reverse direction; random bi-bi sequential mechanism. An excerpt: The ATP-producing NADK has been predominantly studied in the forward direction (consuming ATP) since the observed isoforms, such as the human NADK, are irreversible. Without wishing to be bound by theory, one form, pigeon NADK, follows a random bi-bi sequential mechanism and the kinetic parameters for the reverse direction are found in Table I.
Synthetic pigeon, duck, and cat NADK genes and a cloned human NADK gene all with C-terminal 6×-histidine tags were expressed E. coli and purified to apparent homogencity. The pigeon enzyme shares 85% sequence homology with the human enzyme, while the duck and pigeon enzymes are 96% sequence homology. The cat enzyme shares a 91% sequence homology to the human enzyme.
Referring now to FIGS. 3A-3B, initial rate kinetic experiments were performed with pigeon, duck, cat, and human NADK enzymes in both the forward and reverse directions. […] In FIG. 3B, the production of ATP was detected in a coupled reaction with firefly luciferase where ATP was converted to light, the relative luminescence (RLU) was monitored, and a standard curve was used to calculate the ATP concentration. […]
ATP production was measured using firefly luciferase. […] The luminescence was measured in a plate reader in 26° C. in a solution containing 10 mM Tris-HCl, pH 7.8, and 10 mM MgCl2. The ATP produced was calculated from luminescence using a calibration plot. […]

Regarding `CO` [methanol], the ATP production rate in the data set with ATP production is reported as 7.2×10^7 total RLU/h.
On to `O=CO` [formate], for which the ATP production rate in the data set with ATP production is reported as 1.3×10^7 total RLU/h.
On to `NC(=O)C1=CN([C@@H]2O[C@H](COP(=O)(O)OP(=O)(O)OC[C@H]3O[C@@H](n4cnc5c(N)ncnc54)[C@H](O)[C@@H]3O)[C@@H](O)[C@H]2O)C=CC1` [NADH], for which the “inhibition of human NADK” value at human NADK is “inhibited”. In addition, the kcat (as a rule, the number of substrate molecules converted per active site and unit of time at saturation) in [1] (substrates NADH and ATP) is on record as “(2.6 ± 1.9) × 10^2 min^−1”; in data set [1] (substrates NADH and poly(P) (sodium metaphosphate)), “(5.6 ± 2.6) × 10^2 min^−1”.
As to `NC(=O)C1=CN([C@@H]2O[C@H](COP(=O)(O)OP(=O)(O)OC[C@H]3O[C@@H](n4cnc5c(N)ncnc54)[C@H](OP(=O)(O)O)[C@@H]3O)[C@@H](O)[C@H]2O)C=CC1` [NADPH], the “inhibition of human NADK” value at human NADK was “inhibited”.
As for `NC(=O)c1ccc[n+]([C@@H]2O[C@H](COP(=O)([O-])OP(=O)(O)OC[C@H]3O[C@@H](n4cnc5c(N)ncnc54)[C@H](OP(=O)(O)O)[C@@H]3O)[C@@H](O)[C@H]2O)c1` [NADP^+], the “inhibition of human NADK” value at human NADK is recorded as “not”.

B1: B. subtilis polyphosphate NAD+ kinase (PPNK), recombinant, 6x-histidine tag (Bacillus subtilis subsp. subtilis str. 168) (protein)
chain: MKFAVSSKGDQVSDTLKSKIQAYLLDFDMELDENEPEIVISVGGDGTLLYAFHRYSDRLDKTAFVGVHTGHLGFYADWVPHEIEKLVLAIAKTPYHTVEYPLLEVIVTYHENEREERYLALNECTIKSIEGSLVADVEIKGQLFETFRGDGLCLSTPSGSTAYNKALGGAIIHPSIRAIQLAEMASINNRVFRTVGSPLLLPSHHDCMIKPRNEVDFQVTIDHLTLLHKDVKSIRCQVASEKVRFARFRPFPFWKRVQDSFIGKGE
As to B1, the results for the Km in data set [2] (other: cosubstrate ATP), in data set [2] (other: cosubstrate poly(P) (sodium metaphosphate)) and in data set [3] were 1700 ± 1400 µM, 1200 ± 600 µM and 1400 ± 1110 µM, respectively.

B2: C. boidinii formate dehydrogenase (FDH), recombinant ([Candida] boidinii) (protein)
chain: MKIVLVLYDAGKHAADEEKLYGCTENKLGIANWLKDQGHELITTSDKEGETSELDKHIPDADIIITTPFHPAYITKERLDKAKNLKLVVVAGVGSDHIDLDYINQTGKKISVLEVTGSNVVSVAEHVVMTMLVLVRNFVPAHEQIINHDWEVAAIAKDAYDIEGKTIATIGAGRIGYRVLERLLPFNPKELLYYDYQALPKEAEEKVGARRVENIEELVAQADIVTVNAPLHAGTKGLINKELLSKFKKGAWLVNTARGAICVAEDVAAALESGQLRGYGGDVWFPQPAPKDHPWRDMRNKYGAGNAMTPHYSGTTLDAQTRYAEGTKNILESFFTGKFDYRPQDIILLNGEYVTKAYGKHDKK
notes: made in house; host or cells: E. coli BL21(DE3)
Consider B2, for which, in [4], the Km (usually the substrate concentration at which the rate is half of its maximum) came out at 30 ± 2 µM and the kcat entry is listed as “(3.4 ± 0.1) × 10^2 min^−1”. The Michaelis constant (Km) in data set [5] came to 4000 ± 60 µM.

B3: human NADK: cloned human ATP-NAD^+ kinase with C-terminal 6×-histidine tag (protein, UniProt O95544 1-446, looked up)
NAD kinase: MEMEQEKMTMNKELSPDAAAYCCSACHGDETWSYNHPIRGRAKSRSLSASPALGSTKEFRRTRSLHGPCPVTTFGPKACVLQNPQTIMHIQDPASQRLTWNKSPKSVLVIKKMRDASLLQPFKELCTHLMEENMIVYVEKKVLEDPAIASDESFGAVKKKFCTFREDYDDISNQIDFIICLGGDGTLLYASSLFQGSVPPVMAFHLGSLGFLTPFSFENFQSQVTQVIEGNAAVVLRSRLKVRVVKELRGKKTAVHNGLGENGSQAAGLDMDVGKQAMQYQVLNEVVIDRGPSSYLSNVDVYLDGHLITTVQGDGVIVSTPTGSTAYAAAAGASMIHPNVPAIMITPICPHSLSFRPIVVPAGVELKIMLSPEARNTAWVSFDGRKRQEIRHGDSISITTSCYPLPSICVRDPVSDWFESLAQCLHWNVRKKQAHFEEEEEEEEEG
In the case of B3, the “reverse NADK activity” value in the data set with NADK is on record as “no measurable activity in the reverse direction”.

B4: pigeon NADK (ATP-NAD+ kinase), recombinant, C-terminal 6x-histidine tag (Columba livia) (protein)
chain: MEMNRDKLCPGKADVSSDSAYHCSTCHDDEEWSNTSRGRAKSRSLSASPALGSTKEFRRTRSLHGPCPVTTFGPKACMLQNPKTIMHIQDPASQRLTWNKPPKSVLVIKKIRDASLLQPFKELCVYLTEENNMIVYVEKKVLEDPAIANDDNFGPVKKKFCTFREDYDDISNQIDFIICLGGDGTLLYASSLFQGSVPPVMAFHLGSLGFLTPFNFENFQSQVTQVIEGNAALVLRSRLKVKVVKEHREKTTVQNGIEENGVVSANIEKEVGKQIMQYQVLNEVVVDRGPSSYLSNVDVFLNGHLITTVQGDGVIVSTPTGSTAYAAAAGASMIHPNVPAIMITPICPHSLSFRPIVVPAGVELKIMLSPDARNTAWVSFDGRKRQEICHGDSISITTSCYPLPSICFRDPVSDWFESLAECLHWNVRKKQNNFAVEEEEF
With B4, the Km in data set [6] worked out at 730 ± 160 µM; in [7], 27000 ± 10000 µM. Also, the kcat in data set [6] amounted to 0.145 ± 0.06 s⁻¹.
